The values that follow come from patent US20220220224A1 (Hoffmann-La Roche, published 2022).

Read-outs that look alike come from different tables or passages of the source.

Assay [1] deals with T1, recombinant biotinylated monomeric Fc fusion of murine Folate Receptor 1 (mu FolR1 ECD-AcTev-Fcknob-Avitag … (murine, UniProt P0DOX5 223-449 = IgG part, biotin on the C-terminal Avi tag)).
T1 construct: also called muFolR1-Fc; murine FolR1
The assay can be described thus: SPR Biacore, single injection on immobilized antigen-Fc. As for the experimental part:
(§1) All SPR experiments were performed on a Biacore T200 at 25° C. with HBS-EP as running buffer (0.01 M HEPES pH 7.4, 0.15 M NaCl, 3 mM EDTA, 0.005% Surfactant P20, Biacore, GE Healthcare). The molecules used for affinity and avidity determination are described in Table 45.
(§2) First the anti-FolR1 TCBs were analyzed by single injections (Table 46) to characterize their crossreactivity (to human, murine and cyno FolR1) and specificity (to human FolR1, human FolR2, human FolR3). Recombinant biotinylated monomeric Fc fusions of human, cynomolgus and murine Folate Receptor 1 (FolR1-Fc) or human Folate Receptor 2 and 3 (FolR2-Fc, FolR3-Fc) were directly coupled on a SA chip using the standard coupling instruction (Biacore, Freiburg/Germany). The immobilization level was about 300-400 RU. The TCBs were injected for 60 seconds at a concentration of 500 nM.
In general terms: Surface plasmon resonance follows binding to a sensor surface in real time, without labels.

Assay [2] has as its target T2, recombinant biotinylated monomeric Fc fusion of human Folate Receptor 2 (hu FolR2 ECD-AcTev-Fcknob-Avi tag … (human, UniProt P0DOX5 223-449 = IgG part, biotin on the C-terminal Avi tag)).
T2 construct: also called FolR2-Fc
Described as above. As for the experimental part:
as §1, §2

In assay [3] the target is T3, recombinant biotinylated monomeric Fc fusion of human Folate Receptor 3 (hu FolR3 ECD-AcTev-Fcknob-Avi tag … (human, UniProt P0DOX5 223-449 = IgG part, biotin on the C-terminal Avi tag)).
T3 construct: also called FolR3-Fc
The description is as above. As for the experimental part:
as §1, §2

The target in assay [4] is T4, human FolR1 expressed on cells (HeLa, SKOV3, HT-29, transfected HEK cells) (human, UniProt P15328 25-234). The assay can be described thus: cell-based or functional assay.
T4 sequence (P15328 25-234): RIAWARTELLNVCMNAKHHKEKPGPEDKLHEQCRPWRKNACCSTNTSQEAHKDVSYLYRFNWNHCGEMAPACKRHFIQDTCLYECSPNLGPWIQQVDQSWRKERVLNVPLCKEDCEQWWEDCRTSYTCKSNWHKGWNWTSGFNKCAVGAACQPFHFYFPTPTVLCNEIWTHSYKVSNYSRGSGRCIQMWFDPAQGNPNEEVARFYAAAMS
In assay [5] the target is T5, recombinant biotinylated monomeric Fc fusion of human Folate Receptor 1 (huFolR1 ECD-AcTev-Fcknob-Avi tag … (human, UniProt P0DOX5 223-449 = IgG part, biotin on the C-terminal Avi tag)).
T5 construct: also called huFolR1-Fc; human FolR1-Fc
Nature of the assay: SPR Biacore, avidity (bivalent).

In assay [6] the target is T6, recombinant biotinylated monomeric Fc fusion of cynomolgus Folate Receptor 1 (cy FolR1 ECD-AcTev-Fcknob-Avi … (cynomolgus, UniProt P0DOX5 223-449 = IgG part, biotin on the C-terminal Avi tag)).
T6 construct: also called cyFolR1-Fc; cyno FolR1
Nature of the assay: SPR Biacore, avidity (bivalent, apparent KD), antigen-Fc on SA chip.

The target of assay [7] is T5, recombinant biotinylated monomeric Fc …. The assay is described as above.
Assay [8] concerns the target T4, human FolR1 expressed on cells (HeLa, …). The assay can be described thus: cell-based or functional assay. This is another data set of the same source.
Assay [9] has as its target T5, recombinant biotinylated monomeric Fc …. The assay can be described thus: SPR Biacore, affinity (monovalent).
For assay [10], the target named is T6, recombinant biotinylated monomeric Fc …. Nature of the assay: SPR Biacore, affinity (monovalent), antibody captured via anti-Fab, steady state analysis. As for the experimental part: as §1
(§3) For affinity measurement, direct coupling of around 12000 resonance units (RU) of the anti-human Fab specific antibody (Fab capture kit, GE Healthcare) was performed on a CM5 chip at pH 5.0 using the standard amine coupling kit (GE Healthcare). Anti-FolR1 T cell bispecifics were captured at 20 nM with a flow rate of 10 μl/min for 40 sec, the reference flow cell was left without capture. […] The dissociation phase was monitored for 300 s and triggered by switching from the sample solution to HBS-EP. The chip surface was regenerated after every cycle using a double injection of 60 sec 10 mM Glycine-HCl pH 2.1. Bulk refractive index differences were corrected for by subtracting the response obtained on the reference flow cell 1. The affinity constants for the interactions were derived from the rate constants by fitting to a 1:1 Langmuir binding using the Bia Evaluation software (GE Healthcare). For low affinity kinetics with association and dissociation phases too fast to be fitted by the 1:1 Langmuir binding model, the steady state analysis model was applied using the Bia Evaluation software (GE Healthcare). The steady state analysis gives the KD of the binding reaction at equilibrium.

Assay [11] has as its target T5, recombinant biotinylated monomeric Fc …. The description is as above. As for the experimental part:
as §1, §3

Assay [12] has as its target T6, recombinant biotinylated monomeric Fc …. The assay can be described thus: SPR Biacore, avidity set-up, steady state. As for the experimental part:
(§4) The avidity of the interaction between the anti-FolR1 IgGs or T cell bispecifics and the recombinant folate receptors was determined as described below (Table 41).
(§5) Recombinant biotinylated monomeric Fc fusions of human, cynomolgus and murine Folate Receptor 1 (FolR1-Fc) were directly coupled on a SA chip using the standard coupling instruction (Biacore, Freiburg/Germany). The immobilization level was about 300. […] The dissociation was monitored for 240 or 600 seconds. Bulk refractive index differences were corrected for by subtracting the response obtained on reference flow cell immobilized with recombinant biotinylated murine IL2 receptor Fc fusion. The binding curves resulting from the bivalent binding of the IgG or T cell bispecifics were approximated to a 1:1 Langmuir binding (even though it is a 1:2 binding) and fitted with that model to get an apparent KD representing the avidity of the bivalent binding. The apparent avidity constants for the interactions were derived from the rate constants of the fitting using the Bia Evaluation software (GE Healthcare). For low affinity kinetics with association and dissociation phases too fast to be fitted by the 1:1 Langmuir binding model, the steady state analysis model was applied using the Bia Evaluation software (GE Healthcare). The steady state analysis gives the KD of the binding reaction at equilibrium.

Assay [13] concerns the target T5, recombinant biotinylated monomeric Fc …. The assay can be described thus: SPR Biacore, avidity set-up, steady state. As for the experimental part:
as §4, §5

The target in assay [14] is T6, recombinant biotinylated monomeric Fc …. The assay can be described thus: SPR Biacore, avidity (bivalent, apparent KD), antigen-Fc on SA chip. As for the experimental part:
as §4, §5
The source holds these as a separate data set.

Assay [15] addresses T5, recombinant biotinylated monomeric Fc …. The description is as above. As for the experimental part:
as §4, §5
This is another data set of the same source.

Assay [16] has the same target. The assay can be described thus: SPR Biacore, affinity (monovalent), antibody captured via anti-Fab, steady state. As for the experimental part:
The affinity of the interaction between the anti-FolR1 IgGs or the T cell bispecifics and the recombinant folate receptors was determined as described below (Table 42).
For affinity measurement, direct coupling of around 10000 resonance units (RU) of the anti-human Fab specific antibody (Fab capture kit, GE Healthcare) was performed on a CM5 chip at pH 5.0 using the standard amine coupling kit (GE Healthcare). Anti-FolR1 IgGs or T cell bispecifics were captured at 200 nM with a flow rate of 10 ul/min for 40 sec, the reference flow cell was left without capture. Dilution series (12.35 to 3000 nM) of human Folate Receptor 1 Fc fusion were passed on all flow cells at 30 μl/min for 240 sec to record the association phase. The dissociation phase was monitored for 300 s and triggered by switching from the sample solution to HBS-EP. The chip surface was regenerated after every cycle using a double injection of 60 sec 10 mM Glycine-HCl pH 1.5. Bulk refractive index differences were corrected for by subtracting the response obtained on the reference flow cell 1. […]

B1: 16D5 W96Y/D52E TCB (2+1 inverted, common light chain) (bispecific antibody)
heavy 1: not shown
heavy 2: not shown
light: QAVVTQEPSLTVSPGGTVTLTCGSSTGAVTTSNYANWVQEKPGQAFRGLIGGTNKRAPGTPARFSGSLLGGKAALTLSGAQPEDEAEYYCALWYSNLWVFGGGTKLTVLGQPKAAPSVTLFPPSSEELQANKATLVCLISDFYPGAVTVAWKADSSPVKAGVETTTPSKQSNNKYAASSYLSLTPEQWKSHRSYSCQVTHEGSTVEKTVAPTECS
The term koff denotes a measure of how fast the partners let go of each other. For orientation: kon means a measure of how fast the partners come together. Regarding B1, the binding result in assay [1] was “no binding (tested: 500 nM)”. Further, in assay [2], the binding result was “no binding (tested: 500 nM)”. The binding result in assay [3] was “no binding (tested: 500 nM)”. In assay [4], the “EC50 of T-cell killing of HT-29, 48 h” value is 0.399 nM; the “EC50 of T-cell killing of Hela, 48 h” value is 0.0009 nM; the “EC50 of T-cell killing of SKov-3, 48 h” value was 0.093 nM. The “fold lower avidity than 16D5 WT (3 nM)” value in [5] amounted to 3 fold. Moreover, in assay [6], the Kd came to 30 nM, the off-rate (koff) came to 0.0141 s⁻¹ and the kon was 517000 M⁻¹ s⁻¹. Further, in assay [7], the Kd worked out at 10 nM, the koff was 0.0014 s⁻¹ and the kon was 124000 M⁻¹ s⁻¹. In [8], the “EC50 of T-cell killing of Hela, 24 h” value turned out to be 0.0013 nM and the “EC50 of T-cell killing of SKov-3, 24 h” value turned out to be 0.235 nM. Also, the “fold lower affinity than 16D5 WT (57 nM)” value in [9] came out at 24.5 fold. In addition, in [10], the Kd stood at 5600 nM. The Kd in assay [11] came out at 1400 nM.

B2: 16D5 IgG variant W96Y/K53A (HC/LC) (antibody, V domains shown)
VH: not shown
VL: QTVVTQEPSLTVSPGGTVTLTCGSSTGAVTTSNYANWVQQKPGQAPRGLIGGTNARAPGTPARFSGSLLGGKAALTLSGVQPEDEAEYYCALWYSNLWVFGGGTKLTVL
notes: IgG
On to B2, for which the Kd in assay [12] stood at 660 nM; in assay [13], 580 nM.

B3: 16D5 IgG variant W98Y/wt (HC/LC) (antibody, V domains shown)
VH: not shown
VL: QAVVTQEPSLTVSPGGTVTLTCGSSTGAVTTSNYANWVQEKPGQAFRGLIGGTNKRAPGTPARFSGSLLGGKAALTLSGAQPEDEAEYYCALWYSNLWVFGGGTKLTVL
notes: IgG
With B3, in assay [14], the Kd stood at 200 nM, the koff worked out at 0.0361 s⁻¹ and the kon came to 171000 M⁻¹ s⁻¹. For the same molecule, in assay [15], the Kd was 240 nM, the koff stood at 0.0328 s⁻¹ and the kon was determined as 136000 M⁻¹ s⁻¹. Moreover, the Kd in [16] came out at 5400 nM.
